Here are results for 15 molecules from patent US20160040149A1, “Compositions Having Dicamba Decarboxylase Activity and Methods of Use” (priority 2013, published 2016).

First the molecules themselves.
B1: 24 (protein)
chain: MALGKVVLEEAYERPNMKEKSNHEAGLYIAPNDRPRYMRQINDINQERLKLADAHGVGYTIISLTVPGIQGIFDKTEAERVATETNNWAAEQIKNHRDRLGAFACLSMHDPAQAANELRRCVQELGFHGALLCSFQHAGPDGETYLFYDQPKYDVFWKALTELDVPLYIHPAAPTGSILERLYAQRPALIGPPLSFANDVSLHTLGIISNGVFDRFPNLKIIIGHLGEHIPFDFWRIDHWFRDVKKPIADEEGRVMAQKSLYHYFKHNIWLTTSGHFSTPTLKYVVNEIGVDRVLFSVDYPYETTESGCNWWDHDKDAIVEAVGGVDNYYAIGRENAKKLLRLDKFHDSDAR
modifications: Aspergillus niger
B2: 21 (protein, listed as Agrobacterium tumefaciens)
chain: MAQGKVALEEHFAIPETLQDSAGFVPGDYWKELQHRLLDIQDTRLKLMDAHGIETMILSLNAPAVQAIPDRKKAIEIARRANDVLAEECARRPDRFLAFAALPLQDPDAATQELQRCVNDLGFVGALVNGFSQEGDGQTPLYYDLPQYRPFWGEVEKLDVPFYLHPRNPLPQDSRIYDGHPWLLGPTWAFAQETAVHALRLMASGLFDAHPRLNIILGHMGEGLPYMMWRIDHRNAWVKLPPRYPAKRRFVDYFNENFHITTSGNFRTQTLIDAILEIGADRILFSTDWPFENIDHASDWFNATTIAEADRVKIGRTNARRLFKLDGR
B3: 17 (protein)
chain: MARGKIALEEAFEVKGMDEEIDAQAALYIAPKDVERYKRQIVSITDERLQLSDQNGIGYSILSLTVPGIQGITDKDKAEKRARDVNNYIHDQIKDHRDRLGAFAALSMHDPRQAGHELRRCVKELGFHGALLNDVQHTGEGDDDQPLFYDQPDYDEFWRVAVELDVPVYLHPAAPLRDTLIYKQSYEDRKYLVGPPQSYCNGVALHLMGIIVNGVFDRFPNLKVIVGHMGERIPFDFWRMDHWVKGVTRPLAEKNGDTVCQKEPLYYFKRNIYITTSGHFSTQNLRYLYEWLGDERMMFSVDFPYERMEHGCQWYDDDAEKIKEALGGRDGYLRVGRDNARRLFKLTKFKDCDAV
modifications: Aspergillus niger
B4: 125 (protein)
chain: MAQGKVALEEHFAIPETLQDSAGFVPGDYWKELQHRLLDIQDTRLKLMDAHGIETMILSLAAPAVQAIPDRRKAIEIARRANDFLAEECAKRPDRFLAFAALPLQDPDAATEELQRCVNDLGFVGALVNGFSQEGDGQTPLYYDLPQYRPFWGEVEKLDVPFYLHPRNPLPQDSRIYDGHPWLLGPTWAFAQETAVHALRLMASGLFDEHPRLQIILGHMGEGLPYMMYRIDHRIAWVHEPPRYPAKRRFMDYFNENFHITTSGNFRTQTLIDAILEIGADRILFSTDWPFENIDHASDWFNATSIAEADRVKIGRTNARRLFKLDGA
modifications: Dicamba decarboxylase variant clone: S03970523
B5: 26 (protein, listed as Variovorax paradoxus)
chain: MATHMAPMKNKIALEEHFAIDLTIADSQVYARPEVWQGLKSNLLDFEQQRLEKMDEWGTEFSILSLNSPAVQGIPDAKRAIEVAQRANDVLAEQVKRHPTRFGGFAALPMQDPEASARELERCVNQLGFHGFLVNGFSQVGDENIVVYYDDARFNDFWTAAAALKKPFYMHPRDPLLAREPIYDGAHWLTGPTWAFAMETAIHALRLMSSGMFDRHPALQMILGHFGEGIPFNIWRVDHILRKGRRGMPCDKEIGEYLRSNVHITTSGNFRTPTLLSTMLEVGSDRIMYSVDYPFEKHEDAARWFDTCEISENDRQKIGRDNARKLFGLK
B6: 27 (protein, listed as Aspergillus oryzae)
chain: MALGKIALEEAFALPRFEEKTRWWASLFSTDAETHVKEITDINKIRIEHADKHGVGYQILSYTAPGVQDIWDPVEAQALAVEINDYIAEQVRVNPDRFGAFATLSMHNPKEAADELRRCVEKYGFKGALVNDTQRAGPDGDDMIFYDNADWDIFWQTCTELDVPFYMHPRNPTGTIYEKLWADRKWLVGPPLSFAHGVSLHVLGMVTNGVFDRHPKLQIIMGHLGEHVPFDMWRINHWFEDRKKLLGLAETCKKTIRDYFAENIWITTSGHFSTTTLNFCMAEVGSDRILFSIDYPFETFSDACEWFDNAELNGTDRLKIGRENAKKLFKLDSYKDSSA
B7: 16 (protein, listed as Staphylococcus aureus)
chain: MAQNNMEANQMKSITFEEHYVIEDIQKETMNAISADPKGVPMKVMLEGLEKKTGFTNADELSHHDERIQFMNNQDVQIQVLSYGNGSPSNLVGQKAIELCQKANDQLANYIAQYPNRFVGFATLPINEPETAAREFERCINDLGFKGALIMGRAQDGFLDQDKYDIIFKTAENLGVPIYLHPAPVNSDIYQSYYKGNYPEVTAATFACFGYGWHIDVGIHAIHLVLSGIFDRYPKLNMIIGHWGEFIPFFLERMDEALFAEHLNHPVSYYFKNNFYITPSGMLTKPQFDLVKKEAGIDRILYAADYPYIEPEKLGVFLDELGLTDEEKEKISYTNGAKLLGLSSNN
B8: 25 (protein, listed as Acidovorax avenae)
chain: MAQGKIGLEEHFAIPETLQDSAGFVPGDYWKELSLRLLDIHERRLREMDENGMEMMILSLNAPAVQAIPDTKKAVEIAVRANDFLAEQVARRPDRFQAFAALPMQDPDLATRELERCMQDLGFRGALVNGFSQVGTPENVVYYDAPQYGDFWAAVERLDAPFYLHPRNPIASWAQIYQGHPWLMGPTWAFAQETAVHALRLMASGLFDRHPGLRIILGHLGEGLPYNMWRVDHRNAWVDMPKGYPAKRKLCDYFHENFYLTTSGNFRTQTLIDALLEVGADRILFSTDWPFENVDHAAHWFDDAAISEADRLKIGRTNALSLFKLPQG
B9: 23 (protein, listed as Aplysina aerophoba)
chain: MAIDIDARSQPGLETARRAMSRRDFLGGAAAFGITAAATTALPASTAAGEEEDLFLLGLEEHFATAELRRLNGIQFPQGTPRFDINDVGAGRIADMDAAGIDIQVLSALTPGAQNLPGAEGVAYARRLNSWVAHEVIPAYPGRFRAFATLPLSEPQAAADELEYAVRELGFLGCMTYGAVDGKFLDHADFVPVLARAETLDVPIYIHPNWASPQVMDTYYNGLGNEWVSRVLSGAGYGWHQEVALQCLRMIASGVFDRFPRLQIIVGHMGEGLPFFYWRFGDDLARITADTLEKPVQQYFHDNFWITTSAFFRDELLRLVLSVMGEDRVMFAVDYPFVSNKVGADWFRAVDLPRNVKEKIAHKNAERLLKIGPF
B10: 15 (protein, listed as Metarhizium anisopliae)
chain: MAQEIAKSHETSTRFAGFAVLPMRDPEAAAKELERAVKKLGFVGALVDHKTAHGNGFCEGNEYDVLWRKAEQLAVPIYLHPSWPTEKQFQQAYAGNYSPTAAGTIGGAMFNWHSEVGHHVLRLYAAGVFDKFPKLKIIIGHFGEMIPYMLDRIREQDHRLGKTGRTFSEVYDENIWITTSGVWSLDPMRCILANTKIDHILYSVDYPFTMNERGLEWFQELEKSGLLSEEDLALIAYKNCEKLLGVKAPTQD
B11: 19 (protein, listed as Talaromyces marneffei)
chain: MATPIITLEEHYISSAIRDASETDHYAVFPSQIISKLNTLSTERLQDLDNGHVSLQVISHGPGAQPPYLCQAANDELASAISANPTRFAGFALLPIAEPQLAVQELERCITQHKFVGALIDNHTNGQFYDDQKFWPVFEKAQELDAPIYVHPSYPDEESGVAAHYRGNYDDRIAAALGAYGWGWHSDTALSILRLFAAGLFDTYPNIKIIIGHMGEMLPFQLERVIGIASRFGRSRGLREVWTQNIWVTTSGMFALAPLACLLQTMPIERVLYSVDYPFSANEKGFAFLEEIKKSGLIKEGEDWERFLYKNAQELLKVNV
B12: 18 (protein, listed as Legionella pneumophila)
chain: MAIVDFETHFITEACIDYLTQRQEVPKLVPELNGAYTMCFTPDVSLFHTSALMEELLSLNEQRLAIMDQAGVTIQVLSLTTINGIDSCPGDENKSTALAREVNDQLYSAIQKHPERFKGFASISPYDVKEGVKELERAISQLGFVGWLTHSNFGQDNYLDDKIYWPLLEAAESLNIPIYLHPNVPIMREFGKYGFALGGSALGFEFDTALCLMRMILGGVFDAFPKLKIMLGHLGETMPFLMERLDHLYRIPDLKPYRPSIQRIPSEVLRQNVYITTSGRFFVPALRYVLEVMGEDRVLFASDYPMESLLDATRFIQDSDLSNQTKQKIFSINAKNLNLI
B13: 20 (protein, listed as Legionella pneumophila)
chain: B12 chain with E31D, K112R, I163T, S173G, P256A
B14: 8 (protein, listed as Metarhizium anisopliae)
chain: MARGKINFEEAFELPTLADSSREQAALYIAPKDLDRYIYHIKHPLGERLQLANSHGIGYTIYSLTVPGIQGIPDQSKAEQHATTVNDWIANEIKDHRDRLGAFAALSMHDAAQAAAELERCVRQHGFHGALLNNYQHAGPDGETYLFYDQPAYDVFWQKCVELDVPVYLHPAAPAGNYYKQMYAQRKYLVGPPLSFANDVSLHLLGLVTNGVFDRFPKLKVVVGHLGEHIPFDFWRISHWLEDVERPLAAGRGDVMSKKDLLYYFKNNIWVTTSGHFSTPTVRYVADYLGPERIMFSVDTPYETIENGVGWFDGEEDALTRALGGEDGYKKVARENAKKLFKLTKYHDCDA
B15: 22 (protein, listed as Staphylococcus epidermidis)
chain: MAKSINFEEHYVVDDIQKETMKYMSSDPNGVPMQTMLKGLEQKSGFTNADDITKHDERIKFMDEHDVEMQVLSYGNGAPSNLEGERAIELCQQANDTLAKYVNEHPDRFVGFATLPINEPQAAVEEFKRCIKELGFKGALIMGHPKNGFLDQDQYDDLFATAEALNVPIYLHPSPVQSDVYQAYYKGNYSDVTAATFACFGYGWHVDVGIHAIHLVLSGVFDRHPNLNMIIGHWGEFVPFFLERMDDILFADHLEHPISYYFKNNFYITPSGMLTKPQFDLVKAEVGVDRILYSADYPYVEPDKLGTFLDELDLTEEEKEKISYKNGAKLLGLEK

Numbering of substitutions follows the chain as printed.

This test is described as follows: Saturation mutagenesis of SEQ ID NO:109: dicamba decarboxylation activity of point mutants (CO2 released), fold of backbone (Tables 7, 8, Megatable 1). Particulars: decarboxylation activity (CO2 released) of point mutant vs unmutated backbone protein; backbone SEQ ID NO: 109.
For B1, the “Fold Activity” value is 1.6 fold.
The result for B2 reads 1.9 fold; that for B3, 1.8 fold; that for B4, 1.5 fold.
In the case of B5 it was 1.2 fold; in that of B6, 1 fold; in that of B7, 1.1 fold.
In the case of B8 it was 1 fold; in that of B9, 1.5 fold.
On to B10, for which the “Fold Activity” value came to 1 fold.
The result for B11 reads 1.6 fold.
For the molecule B12, the “Fold Activity” value was determined as 1.2 fold.
In the case of B13 it was 1.8 fold; in that of B14, 1.3 fold; in that of B15, 1.6 fold.
